This passage reports Kd results from article PMC5923107 (2018).

First the molecules themselves.
B1: TRL847 (antibody, V domains shown)
VH: QVQLVESGGGLVQPGGSLRLSCVASGFTFSRFSMNWVRQAPGMGLEWVSYISDTGRTIYYADSVKGRFTISRDNDKNTLYLQMKSLRDEDSAFYYCARDPDTPFVRAFDSWGQGVLVTVSS
VL: DIVMTQSPSFLSASVGDRVTITCRTSQVISSYLAWYQQRPGKAPKLLIYAASTLQSGVPSRFSGSGSGTRFSLTISNLQPEDFATYFCQQLTTYPPITFGQGTRLEIK
B2: TRL854 (antibody, V domains shown)
VH: QVQLVESGAEVKKPGASVRVSCKGSGYTFTAYHMHWVRQAPGQGFEWVGWINPNSGATYYTSTFEGRVTMTRDTSITTAYMELSSLRSDDTAVYYCATDIVVERDASLGGFNSYGMDVWGQGTTVTVSS
VL: DIEMTQSPLSLPVTPGEPASISCRSSQSLLHSNGYNHLAWYLQKPGRSPHLLIYLASTRASGVPDRFSGSGSGTDFTLKISRVEAEDVGIYYCMQSLQTSITFGQGTRLEIK
B3: TRL848 (antibody, V domains shown)
VH: QVQLLESGGDVVQPGTSLRLSCAASGFSLWTSGMHWVRQAPGKGLEWVAVMSYDETKKYYADSVRGRFSISRDNSRNTLYLQMNSLRVEDTAVYFCAKPRLDYLDYFHAADSWGQGTLVSVSS
VL: DIVLTQPPSVSVAPGQTATITCGGNYIGSKSVNWYQQRPGHAPVLVVYDDSDRPSGIPDRFSGSNSRSTATTATLTISRVEAGDEADYYCQVWETSEDLWVFGGGTKLTVL

The test deals with biotinylated HA antigen of B/Florida/04/2006 (influenza B virus B/Florida/04/2006, biotin (site not stated)). Put plainly: BLI. In general terms: In BLI a coated tip is dipped into the sample, and binding shifts an interference pattern.
What is called Kd is the constant that tells how readily two partners part at equilibrium. Molecule B1 gave a Kd of 0.7 nM.
For B2, binding was characterised by a dissociation constant (Kd) of 8.8 nM.
The value for B3 was 1.7 nM.
